Test results taken from the supplement of paper PMC10065799, “High-throughput profiling of sequence recognition by tyrosine kinases and SH2 domains using bacterial peptide display” (eLife, 2023).

biological target: MERTK (UniProt Q12866); assay: phosphorylation enrichment, bacterial display (enrichment ratio); higher = better substrate or ligand; peptides without Tyr show the background
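Further: 11-residue human phosphosite peptides and single-mutation variants displayed on the E. coli surface, counted by deep sequencing, each peptide's frequency after selection divided by its frequency in the unselected input library; frequency after pTyr selection over input frequency; kinase dosed for 20-30% of maximal phosphorylation in three min.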

Chain of MERTK (Q12866 whole entry, looked up): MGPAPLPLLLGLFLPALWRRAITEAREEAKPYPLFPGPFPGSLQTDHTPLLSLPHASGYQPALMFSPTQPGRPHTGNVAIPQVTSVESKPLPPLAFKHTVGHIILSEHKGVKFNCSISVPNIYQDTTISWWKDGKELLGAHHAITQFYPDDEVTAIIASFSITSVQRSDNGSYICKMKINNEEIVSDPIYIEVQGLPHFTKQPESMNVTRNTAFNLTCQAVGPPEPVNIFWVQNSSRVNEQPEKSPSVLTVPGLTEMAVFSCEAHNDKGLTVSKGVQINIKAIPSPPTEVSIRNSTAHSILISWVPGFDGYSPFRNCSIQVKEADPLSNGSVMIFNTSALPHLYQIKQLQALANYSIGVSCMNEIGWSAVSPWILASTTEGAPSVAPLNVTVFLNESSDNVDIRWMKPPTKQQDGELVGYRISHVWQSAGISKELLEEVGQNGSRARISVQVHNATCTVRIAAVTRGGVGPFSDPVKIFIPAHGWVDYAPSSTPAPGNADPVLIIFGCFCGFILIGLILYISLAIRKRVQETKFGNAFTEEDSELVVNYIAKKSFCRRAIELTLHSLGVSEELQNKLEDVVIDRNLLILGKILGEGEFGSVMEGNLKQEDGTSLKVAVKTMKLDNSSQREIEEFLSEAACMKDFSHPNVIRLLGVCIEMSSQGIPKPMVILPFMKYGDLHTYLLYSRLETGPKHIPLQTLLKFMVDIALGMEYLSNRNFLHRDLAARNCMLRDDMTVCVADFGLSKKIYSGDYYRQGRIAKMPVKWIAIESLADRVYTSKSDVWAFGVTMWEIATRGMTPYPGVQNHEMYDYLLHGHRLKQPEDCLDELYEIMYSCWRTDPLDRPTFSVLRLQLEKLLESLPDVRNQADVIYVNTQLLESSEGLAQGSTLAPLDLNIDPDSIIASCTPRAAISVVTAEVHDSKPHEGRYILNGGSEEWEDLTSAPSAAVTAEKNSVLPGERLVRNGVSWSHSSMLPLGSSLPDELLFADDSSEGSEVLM

Sequence	phosphorylation enrichment
AKRKGYDMRVD [NEB_Y2770]	0.394
NDPMEYAKQHG [ASS1_Y163_L160P]	0.465
KPGVNYFFRVS	0.358
PPLMLYNPTTF [EGFR_Y270_YF]	1
YEEDSYSHIMA [FDPS_Y388]	0.561
QEALEYFMKQV [PIK3CA_Y1038_M1043V]	0.289
IRFPPYTDWNQ [ALDH3B2_Y365_H361R_YF]	0.421
RQRTAYFSLNT [CDH1_Y68_D72N]	0.566
SLFNGYVYSGM [NEIL3_Y71_V76M]	0.548
IVFTSYFLTIL [TAS2R16_Y239]	0.476
IENKPYGMSDP [RET_Y1062_L1061P]	0.41
KLSCSYSHWSA [C4BPA_Y470]	0.527
ATATEYHTTSH [SLC4A1_Y46_D45E]	0.395
PTKNDYWAMPA [WWOX_Y287_L291P]	5.26
AQESNYRLLRR [SLC20A2_Y377]	0.406
RLEPVYFVAPA [LAMC2_Y250_D247E]	7.77
RPPFTYATLIH [FOXP3_Y342_R347H]	1.26

Sequence	phosphorylation enrichment
FNNPAYFVLEG [INPPL1_Y986_YF]	3.7
SVVVPYEPPEL [TP53_Y220_V225L]	0.424
VTRLWYPVCFG [ITK_Y336_R335W]	0.412
LQTYRYHGHSM [PDHA1_Y289]	0.698
WDLPEYSFKDP [ITGA3_Y237_S235P_YF]	0.381
DLDPNYVLSSR [CKM_Y125]	0.464
NVADHYRVYKP [ATP6V0D2_Y271_G272R]	0.426
VKANTYEKYWL [GATM_Y100_P105L]	0.875
GSERDYTFDEL [EIF2S2_Y174_E177D_YF]	0.515
KNSSIYVVANI [VNN1_Y134_N131S]	0.751
HLPAGYIIPLQ [GAA_Y822_R819P]	0.542
LAETSYVTVLE [MAGEA1_Y276_K278T]	0.708
PDSVDYPKKGY [CTSK_Y121_R122P]	0.537
VEYAKYGSLQG [RET_Y809_R813Q]	0.418
DDKEYYSVHNK [MET_Y1235_Y1230D]	0.405
NAMRRYIEEFQ [MNS1_Y244]	0.346

biological target: Hck (UniProt P08631); assay: as above
Sequence (P08631 whole entry, looked up): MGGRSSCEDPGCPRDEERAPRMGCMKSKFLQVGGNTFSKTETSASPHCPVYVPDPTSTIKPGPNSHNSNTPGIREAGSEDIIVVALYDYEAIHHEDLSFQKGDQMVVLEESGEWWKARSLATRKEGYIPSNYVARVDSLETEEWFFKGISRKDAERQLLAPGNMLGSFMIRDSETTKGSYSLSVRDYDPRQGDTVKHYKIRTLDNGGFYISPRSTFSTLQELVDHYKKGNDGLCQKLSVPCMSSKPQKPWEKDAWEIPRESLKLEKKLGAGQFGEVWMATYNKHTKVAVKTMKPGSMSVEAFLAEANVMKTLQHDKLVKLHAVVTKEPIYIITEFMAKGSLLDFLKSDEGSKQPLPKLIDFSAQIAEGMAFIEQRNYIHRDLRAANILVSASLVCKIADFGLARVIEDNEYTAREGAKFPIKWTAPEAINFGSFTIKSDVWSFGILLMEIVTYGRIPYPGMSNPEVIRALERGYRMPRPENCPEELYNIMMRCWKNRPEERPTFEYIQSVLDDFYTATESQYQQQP

Sequence	phosphorylation enrichment
AKRKGYDMRVD [NEB_Y2770]	0.355
NDPMEYAKQHG [ASS1_Y163_L160P]	0.467
KPGVNYFFRVS	0.479
PPLMLYNPTTF [EGFR_Y270_YF]	1.13
YEEDSYSHIMA [FDPS_Y388]	0.976
QEALEYFMKQV [PIK3CA_Y1038_M1043V]	0.416
IRFPPYTDWNQ [ALDH3B2_Y365_H361R_YF]	0.439
RQRTAYFSLNT [CDH1_Y68_D72N]	0.423
SLFNGYVYSGM [NEIL3_Y71_V76M]	2.72
IVFTSYFLTIL [TAS2R16_Y239]	0.633
IENKPYGMSDP [RET_Y1062_L1061P]	0.458
KLSCSYSHWSA [C4BPA_Y470]	0.636
ATATEYHTTSH [SLC4A1_Y46_D45E]	0.333
PTKNDYWAMPA [WWOX_Y287_L291P]	1.82
AQESNYRLLRR [SLC20A2_Y377]	0.443
RLEPVYFVAPA [LAMC2_Y250_D247E]	7.76
RPPFTYATLIH [FOXP3_Y342_R347H]	2.06

Sequence	phosphorylation enrichment
FNNPAYFVLEG [INPPL1_Y986_YF]	0.578
SVVVPYEPPEL [TP53_Y220_V225L]	0.503
VTRLWYPVCFG [ITK_Y336_R335W]	0.488
LQTYRYHGHSM [PDHA1_Y289]	0.288
WDLPEYSFKDP [ITGA3_Y237_S235P_YF]	1.19
DLDPNYVLSSR [CKM_Y125]	0.473
NVADHYRVYKP [ATP6V0D2_Y271_G272R]	0.384
VKANTYEKYWL [GATM_Y100_P105L]	0.583
GSERDYTFDEL [EIF2S2_Y174_E177D_YF]	0.528
KNSSIYVVANI [VNN1_Y134_N131S]	0.662
HLPAGYIIPLQ [GAA_Y822_R819P]	0.491
LAETSYVTVLE [MAGEA1_Y276_K278T]	0.862
PDSVDYPKKGY [CTSK_Y121_R122P]	0.614
VEYAKYGSLQG [RET_Y809_R813Q]	0.846
DDKEYYSVHNK [MET_Y1235_Y1230D]	0.791
NAMRRYIEEFQ [MNS1_Y244]	0.413

biological target: Fyn (UniProt P06241); assay: as above
Sequence (P06241 whole entry, looked up): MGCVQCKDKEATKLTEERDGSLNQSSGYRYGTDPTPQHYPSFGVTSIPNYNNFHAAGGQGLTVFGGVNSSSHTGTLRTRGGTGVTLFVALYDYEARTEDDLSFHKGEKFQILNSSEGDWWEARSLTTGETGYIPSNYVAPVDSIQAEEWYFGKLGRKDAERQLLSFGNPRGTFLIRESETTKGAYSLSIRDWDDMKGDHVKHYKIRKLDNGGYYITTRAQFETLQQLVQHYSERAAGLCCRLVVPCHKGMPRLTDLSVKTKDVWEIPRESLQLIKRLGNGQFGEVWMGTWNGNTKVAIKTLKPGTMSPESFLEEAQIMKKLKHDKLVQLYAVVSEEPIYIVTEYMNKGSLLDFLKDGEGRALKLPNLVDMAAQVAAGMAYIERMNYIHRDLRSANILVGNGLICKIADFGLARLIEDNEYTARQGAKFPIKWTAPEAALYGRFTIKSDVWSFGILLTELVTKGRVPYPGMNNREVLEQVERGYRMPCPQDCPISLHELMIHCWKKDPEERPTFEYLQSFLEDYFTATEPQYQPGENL

Sequence	phosphorylation enrichment
AKRKGYDMRVD [NEB_Y2770]	0.47
NDPMEYAKQHG [ASS1_Y163_L160P]	0.389
KPGVNYFFRVS	0.348
PPLMLYNPTTF [EGFR_Y270_YF]	0.692
YEEDSYSHIMA [FDPS_Y388]	0.64
QEALEYFMKQV [PIK3CA_Y1038_M1043V]	0.382
IRFPPYTDWNQ [ALDH3B2_Y365_H361R_YF]	0.395
RQRTAYFSLNT [CDH1_Y68_D72N]	0.699
SLFNGYVYSGM [NEIL3_Y71_V76M]	5.64
IVFTSYFLTIL [TAS2R16_Y239]	0.578
IENKPYGMSDP [RET_Y1062_L1061P]	0.41
KLSCSYSHWSA [C4BPA_Y470]	0.578
ATATEYHTTSH [SLC4A1_Y46_D45E]	0.38
PTKNDYWAMPA [WWOX_Y287_L291P]	0.987
AQESNYRLLRR [SLC20A2_Y377]	0.45
RLEPVYFVAPA [LAMC2_Y250_D247E]	9.5
RPPFTYATLIH [FOXP3_Y342_R347H]	1.68

Sequence	phosphorylation enrichment
FNNPAYFVLEG [INPPL1_Y986_YF]	0.679
SVVVPYEPPEL [TP53_Y220_V225L]	0.494
VTRLWYPVCFG [ITK_Y336_R335W]	0.502
LQTYRYHGHSM [PDHA1_Y289]	0.414
WDLPEYSFKDP [ITGA3_Y237_S235P_YF]	3.1
DLDPNYVLSSR [CKM_Y125]	0.416
NVADHYRVYKP [ATP6V0D2_Y271_G272R]	0.501
VKANTYEKYWL [GATM_Y100_P105L]	0.668
GSERDYTFDEL [EIF2S2_Y174_E177D_YF]	0.474
KNSSIYVVANI [VNN1_Y134_N131S]	0.567
HLPAGYIIPLQ [GAA_Y822_R819P]	0.388
LAETSYVTVLE [MAGEA1_Y276_K278T]	0.702
PDSVDYPKKGY [CTSK_Y121_R122P]	0.759
VEYAKYGSLQG [RET_Y809_R813Q]	1.44
DDKEYYSVHNK [MET_Y1235_Y1230D]	0.529
NAMRRYIEEFQ [MNS1_Y244]	0.371

system: Fer (mouse); assay: as above

Sequence	phosphorylation enrichment
AKRKGYDMRVD [NEB_Y2770]	0.358
NDPMEYAKQHG [ASS1_Y163_L160P]	0.426
KPGVNYFFRVS	0.41
PPLMLYNPTTF [EGFR_Y270_YF]	1.25
YEEDSYSHIMA [FDPS_Y388]	1.48
QEALEYFMKQV [PIK3CA_Y1038_M1043V]	0.402
IRFPPYTDWNQ [ALDH3B2_Y365_H361R_YF]	0.53
RQRTAYFSLNT [CDH1_Y68_D72N]	0.552
SLFNGYVYSGM [NEIL3_Y71_V76M]	0.581
IVFTSYFLTIL [TAS2R16_Y239]	0.511
IENKPYGMSDP [RET_Y1062_L1061P]	0.483
KLSCSYSHWSA [C4BPA_Y470]	0.657
ATATEYHTTSH [SLC4A1_Y46_D45E]	0.301
PTKNDYWAMPA [WWOX_Y287_L291P]	0.469
AQESNYRLLRR [SLC20A2_Y377]	0.414
RLEPVYFVAPA [LAMC2_Y250_D247E]	0.985
RPPFTYATLIH [FOXP3_Y342_R347H]	0.766

Sequence	phosphorylation enrichment
FNNPAYFVLEG [INPPL1_Y986_YF]	0.501
SVVVPYEPPEL [TP53_Y220_V225L]	0.491
VTRLWYPVCFG [ITK_Y336_R335W]	0.509
LQTYRYHGHSM [PDHA1_Y289]	0.455
WDLPEYSFKDP [ITGA3_Y237_S235P_YF]	0.421
DLDPNYVLSSR [CKM_Y125]	0.394
NVADHYRVYKP [ATP6V0D2_Y271_G272R]	0.433
VKANTYEKYWL [GATM_Y100_P105L]	2.47
GSERDYTFDEL [EIF2S2_Y174_E177D_YF]	0.582
KNSSIYVVANI [VNN1_Y134_N131S]	0.622
HLPAGYIIPLQ [GAA_Y822_R819P]	0.297
LAETSYVTVLE [MAGEA1_Y276_K278T]	0.67
PDSVDYPKKGY [CTSK_Y121_R122P]	0.832
VEYAKYGSLQG [RET_Y809_R813Q]	0.458
DDKEYYSVHNK [MET_Y1235_Y1230D]	0.603
NAMRRYIEEFQ [MNS1_Y244]	0.417
